# Measurements: patent US20260008852A1 (CRYSTAL BIOSCIENCE, published 2026)
# T1: his-tagged B7-H3 (UniProt Q5ZPR3-2 29-245, limits assumed)
# T1 construct: also called CD276; not shown: His tag
# T1 sequence (looked up): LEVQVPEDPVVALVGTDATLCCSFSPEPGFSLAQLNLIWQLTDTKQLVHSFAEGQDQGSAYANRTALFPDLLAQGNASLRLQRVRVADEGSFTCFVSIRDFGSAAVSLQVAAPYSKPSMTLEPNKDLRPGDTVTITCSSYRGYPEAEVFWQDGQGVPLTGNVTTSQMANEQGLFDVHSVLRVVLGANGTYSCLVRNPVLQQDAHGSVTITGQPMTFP
# T2: B7-H3 on CHO-K1 cells stably transfected with B7-H3 (GenScript #M00536) (UniProt Q5ZPR3 29-534, limits assumed)
# T2 sequence (looked up): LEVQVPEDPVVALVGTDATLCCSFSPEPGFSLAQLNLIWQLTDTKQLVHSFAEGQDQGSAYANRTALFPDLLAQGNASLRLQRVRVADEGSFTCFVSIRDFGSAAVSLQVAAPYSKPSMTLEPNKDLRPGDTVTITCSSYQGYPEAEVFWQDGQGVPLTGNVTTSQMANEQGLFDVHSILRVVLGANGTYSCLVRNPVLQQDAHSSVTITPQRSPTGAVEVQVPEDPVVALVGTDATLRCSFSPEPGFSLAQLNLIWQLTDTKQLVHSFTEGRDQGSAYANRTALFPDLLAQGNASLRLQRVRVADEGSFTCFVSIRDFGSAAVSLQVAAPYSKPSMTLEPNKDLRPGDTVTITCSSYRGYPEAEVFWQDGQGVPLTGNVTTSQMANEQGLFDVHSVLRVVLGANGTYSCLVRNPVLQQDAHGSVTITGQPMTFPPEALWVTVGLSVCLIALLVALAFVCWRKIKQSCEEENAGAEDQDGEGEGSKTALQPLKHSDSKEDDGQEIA
# Target: T1, his-tagged B7-H3
# Assay: SPR, Carterra LSA; binder captured by anti-human Fc, his-tagged B7-H3 injected
# Summary of the method: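 ScFv-Fc supernatants, diluted 30-fold in HBSTE, captured on anti-human Fc-coupled HC30M chip. His-tagged B7-H3 injected as 1:2 dilution series from 400 nM; kinetics fitted to give affinities.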
Binder,Kd,koff,kon
"40633p1.1.G10 scFv-Fc (scFv, V domains shown) VH: EVQLLESGGGLVEPGGSLRLSCAASGFSFSSYGMHWVRQAPGKGLDWVAVINGEGSGTYYADSVKGRFTISRDNSKSTLYLQMNSLRAEDTAVYYCTKYYYNYAMDVWGQGTTVTVSS VL: QSVLTQPPSASGTPGQRVTISCSGSRTDIGTTSVNWYQQLPGTAPKLLIYQSHQRPSGVPDRFSGSKSGTSASLAISGLQSEDEADYYCASWDASQNTWVFGGGTKLTVL",0.248 nM,,349000 M⁻¹ s⁻¹
"40633p1.2.A8 scFv-Fc (scFv, V domains shown) VH: EVQLLESGGGLLQPGGSLRLSCAASGFSFSSYGMHWVRQAPGKGLEWVAAINSDGSRIYYADSVKGRFTISRDNSKNTLYLQMNSLRAEDTAVYYCTKYYYHYAMDVWGQGTTVTVSS VL: QSVLTQPPSASGTPGQRVTISCSGSRSDIGATTVNWYQQLPGTAPKLLIYQSHLRPSGVPDRFSGSKSGTSASLAISGLQSEDEADYYCASWDASLNTWVFGGGTKLTVL",12.5 nM,,304000 M⁻¹ s⁻¹
"40633p1.1.H11 scFv-Fc (scFv, V domains shown, Tested as scFv-Fc supernatant) VH: EVQLLESGGGLVQPGGSLRLSCAASGFTFSSYPMTWVRQAPGKGLEWVADINSGGGTTLYADAVKGRFTISRDNSKNIVYLQMNSLRGEDTAVYYCAKHLDYYSYGMDVWGQGTTVTVSS VL: QSVLTQPPSASGTPGQRVTISCSGVTSKIGSKYVHWYQQLPGTAPKLLIYRNFERPSGVPDRFSGSTSGTSASLAISGLQSEDEADYYCATWEGALNGWVFGGGTKLTVL",0.175 nM,,113000 M⁻¹ s⁻¹
"40633p1.1.G7 scFv-Fc (scFv, V domains shown, Tested as scFv-Fc supernatant) VH: EVQLLESGGGLVQPGGSLRLSCAASGFTFSGSAMNWVRQAPGKGLEWVSAINSGGTTIYYADSVKGRFTVSRDNSKNTLYLQMNSLRAEDTAVYYCVKLDFYYGMDVWGEGTTVTVSS VL: QSVVTQPPSASGTPGQRVTVSCSGSSSNVGSKYVQWYQQLPGTAPKLLIYATDRRPSGVPDRFSGSKSGTSASLAISGLQSEDEADYYCASWDDSLNAWVFGGGTKLTVL",0.113 nM,,411000 M⁻¹ s⁻¹
"40633p1.1.G5 scFv-Fc (scFv, V domains shown, Tested as scFv-Fc supernatant) VH: EVQLLESGGGLVQPGGSLRLSCAASGFIVNYYGMSWVRQPPGKGLEWVSAIKQDGSEKYYADSVKGRFTISRDNSKTTLYLQMNSLRAEDTAVYYCARHWNDYSNGMNVWGQGTTVTVSS VL: QSVLTQPPSASGTPGQRVTISCSGSWSNIGSYNSHWYQKLPGTAPKLLIYTTDRRPSGVPDRFSGSKSGTSASLAISGLQSEDEADYYCGTWDDSLNVWVFGGGTKLTVL",437 nM,0.06 s⁻¹,141000 M⁻¹ s⁻¹
"40633p1.2.D1 scFv-Fc (scFv, V domains shown, Tested as scFv-Fc supernatant) VH: EVQLLESGGGLVQPGGSLRLSCAASGFTFDVYGMSWVRQAPGKGLEWVSAINWNGGSTYYADSVKGRFTISRDNSENTLYLQMNSLRAEDTAVYYCAKEKWKHFIYYGMDVWGQGTTVTVSS VL: QSVLTQPASASGTPGQTVSISCSGSSSNIDSNTANWYQQLPGTAPKLLIYSNNQRPSGVPDRFSGSKSDTSASLAISGLQSEDEGDYYCSAWDDNLNGWLFGGGTKLTVL",39.8 nM,0.02 s⁻¹,392000 M⁻¹ s⁻¹
"40633p1.1.G3 scFv-Fc (scFv, V domains shown) VH: EVQLLESGGGLVQPGGSLRLSCAASGLTFSSYAMNWVRQAPGKGLEWVAGIGGSGSSTYHTDSVKGRFTISRDNSKNTLYLQMNSLRAEDAAVYYCAKEDHWSGGMDVWGQGTTVTVSS VL: not shown",524 nM,0.04 s⁻¹,73300 M⁻¹ s⁻¹

# Now from value to binder:
Kd,koff,kon,Binder
164 nM,0.01 s⁻¹,72000 M⁻¹ s⁻¹,"Benchmark MGA-271 (antibody, V domains shown) VH: EVQLVESGGGLVQPGGSLRLSCAASGFTFSSFGMHWVRQAPGKGLEWVAYISSDSSAIYYADTVKGRFTISRDNAKNSLYLQMNSLRDEDTAVYYCGRGRENIYYGSRLDYWGQGTTVTVSS VL: DIQLTQSPSFLSASVGDRVTITCKASQNVDTNVAWYQQKPGKAPKALIYSASYRYSGVPSRFSGSGSGTDFTLTISSLQPEDFATYYCQQYNNYPFTFGQGTKLEIK"
1.11 nM,,134000 M⁻¹ s⁻¹,"40633p1.2.E11 scFv-Fc (scFv, V domains shown) VH: EVQLLESGGGLVQPGGSLRLSCAASGFSFSNYDMSWVRQAPGKGLEWVAGIRSGSRTYYADSVKGRFTISRDNSKNTLYLQMNSLRAEDTATYYCGRYFNMDVWGQGTTVTVSS VL: QSVLTQPPSASGTPGQRVTISCSGSTFNIGTNLVHWYQQLPGTAPKLLIYLTDRRPPGVPDRFSGSKSGTSASLAISGLQSEDEANYYCATWDDSLNSFLFGGGTKLTVL"
10.8 nM,,325000 M⁻¹ s⁻¹,"40633p1.2.G9 scFv-Fc (scFv, V domains shown) VH: EVQLLESGGGLLQPGGSLRLSCAASGFSFSSYGMHWVRQAPGKGLEWVAAINSDGSRIYYADSVEGRFTISRDNSKNTLYLQMNSLRAEDTAVYYCTKYYYHYAMDVWGQGTTVTVSS VL: QSVLTQPPSASGTPGQRVTISCSGSRSDIGATTVNWYQQLPGTAPKLLIYQSHLRPSGVPDRFSGSKSGTSASLAISGLQSEDEADYYCASWDASLNTWVFGGGTKLTVL"
307 nM,0.07 s⁻¹,241000 M⁻¹ s⁻¹,"40633p1.2.D11 scFv-Fc (scFv, V domains shown, Tested as scFv-Fc supernatant) VH: EVQLESGGGLVQPGGSLRLSCAASGFTVSYYGMSWVRQAPGKGLEWVSAIKQDGSEKYYADSVKGRFTISRDNSKNTLYLQMNSLRAEDTAVYYCARHWNDYSNAMNVWGQGTTVTVSS VL: QSVLTQPPSASGTPGQRVTISCSGSTSNIAIDFVNWYQQLPGTAPKLLIYTIDQRPSGVPDRFSGSKSGTSASLAISGLQSEDEAVYYCASWDASLNGWVFGRGTKLTVL"
40.2 nM,0.02 s⁻¹,389000 M⁻¹ s⁻¹,"40633p1.2.E5 scFv-Fc (scFv, V domains shown, Tested as scFv-Fc supernatant) VH: EVQLLESGGGLVQPGGSLRLSCAASGFTFDGYGMSWVRQAPGKGLEWVSAISGNSGSIYYADSVKGRFTISRDNSKNTLYLQMNSLRAEDTAAYYCAKEKWKHFIYYGMDVWGQGTTVTVSS VL: not shown"

# Target: T2, B7-H3 on CHO-K1 cells stably …
# Assay: cell-based or functional assay
Binder,"ADCC reporter assay, EC50 Value, CHOK1/B7-H3 cells","ADCC reporter assay, Max RLU, CHOK1/B7-H3 cells"
"40511p1.1.D6 IgG (antibody, V domains shown) VH: DVQLVESGGGVVRPGESLTLSCAASGFTINSYAVSWVRQAPGEGLEWVSGISGSGVRYYADSVKGRFTISRDNSNNTLYLQMNSLRAEDTAVYYCARSNKVTWNNFFDYWGLGTLVTVSS VL: EVVLTQSPGTLTLSPGERATLSCRASRSILTSLAWYQQKPGQAPRLLIYNTVTRATGIPARFSGSGSGTEFTLTINSLQSEDFAVYYCQQYYDWPPLTFGGGTKVEIK",0.014 µg/mL,751000 RLU
"40511p1.1.G3 IgG (antibody, V domains shown) VH: DVQLVESGGGVVRPGESLTLSCAASGFTINSYAVSWVRQAPGEGLEWVSGISGSGVRYYADSVKGRFTISRDDSNNTLYLQMNSLRAEDTAVYYCARSNKVTWNNFFDYWGLGTLVTVSS VL: EVVLTQSPGTLTLSPGERATLSCRASRSILTSLAWYQQKPGQAPRLLIYNTVTRATGIPARFSGSGSGTEFTLTINSLQSEDFAVYYCQQYYDWPPLTFGGGTKVEIK",0.0141 µg/mL,723000 RLU
"40511p1.1.G1 IgG (antibody, V domains shown) VH: DVQLVESGGGVVRPGESLRLSCAASGFTFSSYAESWVRQAPGEGLEWVSIISGSGGNTFYADSVKGRFTISRDNSKNTLYLQMNSLRAEDTAVYYCARFAYGFFDYWGLGTLVTVSS VL: EIVLTQSPGTLSVSPGEGATLSCRASQTVGSKLAWYQQKPGQPPSLLIYDASTRATGIPDRFSGSGSGTDFTLTISSLQSEDFAVYYCQQYRNWPPLTFGGGTKVEIK",0.0416 µg/mL,679000 RLU

# Results, then the binder that gave them:
"ADCC reporter assay, EC50 Value, CHOK1/B7-H3 cells","ADCC reporter assay, Max RLU, CHOK1/B7-H3 cells",Binder
0.031 µg/mL,725000 RLU,"40633p1.2.E1 IgG (antibody, V domains shown) VH: EVQLLESGRGLVQPGGSLRLSCAASGFTVSYYGMSWVRQAPGKGLEWVSVIKQDGSEEYYADSVKGRFTISRDNSKNTLYLQMNSLRAEDTAVYYCARHWNDYSNGMNVWGQGTTVTVSS VL: QSVLTQPPSASGTPGQRVTISCSGSTSNVGDRYVYWYQQLPGTAPKLLIYLDDQRPSGVPDRFSGSKSGTSASLAISGLQSEDEADYYCASWDASLNGWVFGGGTKLTVL"
0.03 µg/mL,700000 RLU,"40633p1.2.F3 IgG (antibody, V domains shown) VH: EVQLLESGGGLVQPGGSLRLSCAASGFTVSYYGMSWVRQAPGKGLEWVSVIKQDGSEEYYADSVKGRFTISRDNSKNTLYLQMNSLRAEDTAVYYCARHWNDYSNGMNVWGQGTTVTVSS VL: not shown"
0.0268 µg/mL,669000 RLU,"40633p1.2.E5 IgG (antibody, V domains shown) VH: EVQLLESGGGLVQPGGSLRLSCAASGFTFDGYGMSWVRQAPGKGLEWVSAISGNSGSIYYADSVKGRFTISRDNSKNTLYLQMNSLRAEDTAAYYCAKEKWKHFIYYGMDVWGQGTTVTVSS VL: not shown"
